Data: publication PMC13013135, “[^99mTc]Tc-PSMA-HSG for PSMA-targeted Hybrid Surgical Guidance: a new addition to the PSMA-I&S/I&T family” (European Journal of Nuclear Medicine and Molecular Imaging, 2025)

Columns and labels:
[1] = human, in vivo
Protocol: [^99mTc]Tc-PSMA-HSG scans were performed using a GE Discovery NM/CT 670 Pro (GE Healthcare, Milwaukee, USA; n = 4) or Siemens Symbia T2 (Siemens Healthineers, Erlangen, Germany; n = 1) system. For dosimetry, planar dynamic whole body scans were performed at 5 min and 1 h after injection with a bed speed of 30 cm/min; and at 3–4 h and 20 h after injection with a speed of 12 cm/min. At 3–4 h and 20 h after injection additional SPECT/CT imaging was acquired. Attenuation maps were generated on the basis of low-dose CT. For a detailed protocol of imaging parameters and the dosimetry protocol please refer to the Supplementary Material.
The planar and SPECT/CT images per time point were processed using syngo.via (Siemens Healthineers, Erlangen, Germany). Organs were segmented on the accompanying CT of the SPECT/CT of each imaging time point to avoid errors due to misalignment during image registration. Segmented organs included gallbladder, muscle, heart, kidneys, liver, lungs, pancreas, spleen, stomach, and urinary bladder on the SPECT/CT. For bone marrow dosimetry, spherical volumes of interest (VOIs) were placed in lumbar vertebrae L2 to L4 [8]. Salivary glands and their background were manually segmented on the anterior view of the planar whole-body scans. Region-wise image statistics were extracted into spreadsheets including administered activity and the time interval between administration and imaging start.
Count statistics were converted into units of Becquerel by using the decay-corrected reference activity source that was within the field of view (FOV) of each imaging acquisition. Percentage injected activities per time were entered into MIRDfit v1.01 for fitting the time-activity data. The trapezoidal method with zero activity at time zero and physical decay extrapolation after the last time point was used for the data with only two SPECT acquisitions and monoexponential fitting was used for the three SPECT acquisitions and if the fit R² was greater than 0.97. The salivary glands with available data from four planar images were fitted biexponentially if R² was greater than 0.97. The bladder was modelled in MIRDfit assuming effective half-life, two time points and a 3 h voiding interval. The resulting time integrated activity coefficients (TIACs, unit of hours) were entered in MIRDcalc v1.22 [10] for dosimetry calculations and patient-individual organ masses for kidneys, liver, pancreas, spleen and estimate for red marrow were used for S-value adjustments.

[2] = molecular target: human serum albumin (HSA) (Homo sapiens, UniProt P02768); assay: Plasma protein binding (B50), ultrafiltration, HSA; format: in vitro ADME
Protocol: A detailed experimental procedure is provided in the Supplementary Material. […] Briefly, protein solutions (maximum concentration: […] Samples were briefly vortexed and incubated for 30 min at 37 °C. […] The filter units were then removed from the centrifugal tubes and washed twice with 300 µL PBS to recover the protein fraction. The activity in the filtrate, filter and protein fraction were then quantified using a γ-counter. […] The percentages of radioligand bound to the respective proteins are represented as means ± standard deviation (SD) of three independent experiments.

in vivo = details: mouse, in vivo
Protocol: The biodistribution of [^99mTc]Tc-PSMA-HSG and of the reference compound [^99mTc]Tc-PSMA-I&S was investigated in LNCaP xenograft bearing NSG mice (see supplemental information).
Mice were injected intravenously with the respective ^99mTc-labeled tracer (24–34 MBq (fixed peptide dose of 1 nmol/mouse) or 3.7–7.6 MBq (fixed peptide doses of 0.1 nmol/mouse), respectively) and were sacrificed at 2 h (1 nmol-cohort) or 6 h p.i. (0.1 nmol-cohort), respectively. The organs of interest were dissected, and the activity concentration in weighed tissue samples was quantified using an AMG Automatic Gamma Counter (Hidex, Turku, Finland). Biodistribution data are given in %iD/g and represent means ± SD (groups of n = 5 animals). Statistical analysis (Multiple unpaired t-test) of biodistribution data and tumor/organ ratios was performed using GraphPad Prism (Boston, USA).
To induce LNCaP tumor growth, a suspension of LNCaP cells (approx. 5 x 10^6 cells/mouse) in 200 μl of a 1:1 mixture of serum-free DMEM and Matrigel (BD Biosciences) was injected subcutaneously into the right shoulder of male NOD scid gamma (NSG) mice (6-8 weeks, in-house breeding, Dpt. of Oncology, University of Lausanne). After approximately 9 weeks, tumor size reached 4-8 mm in diameter and the mice were used for the in vivo studies.

[3] = tested on: LNCaP xenograft bearing NSG mice; assay: Small animal SPECT/CT with 2-PMPA blocking; format: in vivo, mouse; details: 1 nmol peptide, 1 µmol 2-PMPA, SPECT/CT 2–4 h p.i.
Protocol: SPECT/CT images were acquired using an Albira Si PET/SPECT/CT (Bruker Biospin Corporation, Woodbridge, CT, USA) instrument. Mice were injected with the respective ^99mTc-labeled tracer (24–34 MBq; the injected peptide amount was kept constant at 1 nmol/animal), with (blocking) or without (control) coinjection of 226 µg (1 µmol) 2-PMPA. […] For SPECT imaging, static acquisitions of 2 h (accumulation of 1–2 × 10^6 events) were acquired with the following parameters: photopeak at 140 keV ± 30%, axial FOV 82.5 mm using a single pinhole collimator. For reconstruction, an ordered subset expectation-maximization algorithm (OSEM) with two iterations was used, and scatter correction was applied. For CT, the following parameters were used: 400 µA intensity and 35 kV voltage, 600 projections. Images were reconstructed using a filtered back-projection (FBP) algorithm with de-ringing correction. Fused representative SPECT/CT images were acquired using the PMOD software (PMOD technologies, version 3.709, Zurich, Switzerland).

Chain of human serum albumin (HSA) (P02768 25-609): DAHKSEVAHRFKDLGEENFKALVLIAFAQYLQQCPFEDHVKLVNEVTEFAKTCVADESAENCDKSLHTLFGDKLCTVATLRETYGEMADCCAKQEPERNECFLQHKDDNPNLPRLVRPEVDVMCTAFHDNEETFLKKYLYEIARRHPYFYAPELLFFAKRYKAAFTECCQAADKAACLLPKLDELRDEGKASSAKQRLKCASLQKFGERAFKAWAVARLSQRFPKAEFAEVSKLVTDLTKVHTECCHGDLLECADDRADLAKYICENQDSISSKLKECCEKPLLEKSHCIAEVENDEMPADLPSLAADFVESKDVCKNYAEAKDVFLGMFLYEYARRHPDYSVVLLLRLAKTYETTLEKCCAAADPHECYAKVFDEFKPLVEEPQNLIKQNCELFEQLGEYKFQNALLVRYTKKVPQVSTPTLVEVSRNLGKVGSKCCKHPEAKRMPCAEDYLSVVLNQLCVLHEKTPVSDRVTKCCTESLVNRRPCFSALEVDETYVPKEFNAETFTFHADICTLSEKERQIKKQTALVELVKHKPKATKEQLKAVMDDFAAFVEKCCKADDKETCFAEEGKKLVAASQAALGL

With `C[N+]1=C(/C=C/C=C/C=C2/N(CCCCCC(=O)NCCCC[C@@H](NC(=O)[C@@H](CO)NC(=O)[C@@H](CO)NC(=O)[C@@H](CO)NC(=O)CS)C(=O)N[C@H](Cc3ccc(O)cc3)C(=O)N[C@H](Cc3ccc4ccccc4c3)C(=O)N[C@H](CCCCNC(=O)CCCCCCC(=O)NCCCC[C@H](NC(=O)N[C@@H](CCC(=O)O)C(=O)O)C(=O)O)C(=O)O)c3ccc(S(=O)(=O)[O-])cc3C2(C)C)C(C)(C)c2cc(S(=O)(=O)O)ccc21` [[^99mTc]Tc-PSMA-HSG, metal not drawn] the “Absorbed dose coefficient of salivary glands from planar images” value [1] was 0.007 ± 0.004 mGy/MBq, the “Absorbed dose coefficient of salivary glands from planar images, max” value [1] was 0.013 mGy/MBq and the “Absorbed dose coefficient of salivary glands from planar images, min” value [1] was 0.005 mGy/MBq. The “Absorbed dose, Brain” value [1] was 0.000 mGy/MBq, the “Absorbed dose, ET1 airway basal cells” value [1] was 0.000 mGy/MBq and the “Absorbed dose, Eye lens” value [1] was 0.000 mGy/MBq. For the same compound, the “Absorbed dose, Lymph nodes - extrathoracic” value [1] was 0.001 mGy/MBq, the “Absorbed dose, Tonsils” value [1] was 0.001 mGy/MBq and the “Organ TIAC, Bone marrow - red (active)” value [1] was 0.412 h. For the same compound, the “Organ TIAC, Gallbladder content” value [1] was 0.015 h, the “Organ TIAC, Heart content” value [1] was 0.164 h and the “Organ TIAC, Lungs” value [1] was 0.360 h. For the same compound, the “Organ TIAC, Muscle” value [1] was 1.230 h, the “Organ TIAC, Pancreas” value [1] was 0.035 h and the “Organ TIAC, Spleen” value [1] was 0.096 h. The “Organ TIAC, Stomach content” value [1] was 0.090 h, the “effective dose for a typically injected activity” value [1] was 7.9 mSv and the “B50 HSA” value [2] was 273 ± 36. It also gave a tissue uptake at 6 h (in vivo; male, NOD scid gamma (NSG), iv, 0.1 nmol/mouse, total radioactivity, biodistribution, liver) of 2.5 ± 0.4 %ID/g, a tissue uptake at 6 h (in vivo; male, NOD scid gamma (NSG), iv, 0.1 nmol/mouse, total radioactivity, biodistribution, lung) of 2.5 ± 0.5 %ID/g and a tissue uptake at 6 h (in vivo; male, NOD scid gamma (NSG), iv, 0.1 nmol/mouse, total radioactivity, biodistribution, pancreas) of 0.8 ± 0.3 %ID/g. The tissue uptake at 6 h (in vivo; male, NOD scid gamma (NSG), iv, 0.1 nmol/mouse, total radioactivity, biodistribution, spleen) was 9.7 ± 3.8 %ID/g, the tissue uptake at 6 h (in vivo; male, NOD scid gamma (NSG), iv, 0.1 nmol/mouse, total radioactivity, biodistribution, stomach) was 1.1 ± 0.2 %ID/g and the tissue uptake at 2 h (in vivo; male, NOD scid gamma (NSG), iv, 1 nmol/mouse, total radioactivity, biodistribution, liver) was 3.3 ± 0.3 %ID/g. For the same compound, the tissue uptake at 2 h (in vivo; male, NOD scid gamma (NSG), iv, 1 nmol/mouse, total radioactivity, biodistribution, lung) was 2.8 ± 0.3 %ID/g, the tissue uptake at 2 h (in vivo; male, NOD scid gamma (NSG), iv, 1 nmol/mouse, total radioactivity, biodistribution, pancreas) was 0.8 ± 0.1 %ID/g and the tissue uptake at 2 h (in vivo; male, NOD scid gamma (NSG), iv, 1 nmol/mouse, total radioactivity, biodistribution, spleen) was 5.2 ± 1.9 %ID/g. The tissue uptake at 2 h (in vivo; male, NOD scid gamma (NSG), iv, 1 nmol/mouse, total radioactivity, biodistribution, stomach) was 1.6 ± 0.1 %ID/g, the tissue to tissue ratio at 6 h (in vivo; male, NSG, iv, 0.1 nmol/mouse, total radioactivity) was 0.12 ± 0.02 and the tissue uptake at 6 h (in vivo; male, NSG, iv, 0.1 nmol/mouse, total radioactivity, biodistribution, LNCaP tumor) was 19.8 ± 6.6 %ID/g. It also gave a tissue uptake at 6 h (in vivo; male, NSG, iv, 0.1 nmol/mouse, total radioactivity, biodistribution, blood) of 1.3 ± 0.3 %ID/g, a tissue uptake at 6 h (in vivo; male, NSG, iv, 0.1 nmol/mouse, total radioactivity, biodistribution, heart) of 0.7 ± 0.2 %ID/g and a tissue uptake at 6 h (in vivo; male, NSG, iv, 0.1 nmol/mouse, total radioactivity, biodistribution, intestines) of 1.3 ± 0.2 %ID/g. For the same compound, the tissue uptake at 6 h (in vivo; male, NSG, iv, 0.1 nmol/mouse, total radioactivity, biodistribution, kidneys) was 148 ± 17 %ID/g, the tissue uptake at 6 h (in vivo; male, NSG, iv, 0.1 nmol/mouse, total radioactivity, biodistribution, muscle) was 0.4 ± 0.06 %ID/g and the tissue uptake at 6 h (in vivo; male, NSG, iv, 0.1 nmol/mouse, total radioactivity, biodistribution, salivary glands) was 4 ± 1.2 %ID/g. It also gave a tissue to tissue ratio at 2 h (in vivo; male, NSG, iv, 1 nmol/mouse, total radioactivity) of 0.2 ± 0.03, a tissue uptake at 2 h (in vivo; male, NSG, iv, 1 nmol/mouse, total radioactivity, biodistribution, LNCaP tumor) of 12.1 ± 0.9 %ID/g and a tissue uptake at 2 h (in vivo; male, NSG, iv, 1 nmol/mouse, total radioactivity, biodistribution, blood) of 2.4 ± 0.3 %ID/g. For the same compound, the tissue uptake at 2 h (in vivo; male, NSG, iv, 1 nmol/mouse, total radioactivity, biodistribution, heart) was 1.3 ± 0.2 %ID/g, the tissue uptake at 2 h (in vivo; male, NSG, iv, 1 nmol/mouse, total radioactivity, biodistribution, intestines) was 1 ± 0.1 %ID/g and the tissue uptake at 2 h (in vivo; male, NSG, iv, 1 nmol/mouse, total radioactivity, biodistribution, kidneys) was 61.7 ± 7.2 %ID/g. It also gave a tissue uptake at 2 h (in vivo; male, NSG, iv, 1 nmol/mouse, total radioactivity, biodistribution, muscle) of 0.5 ± 0.04 %ID/g, a tissue uptake at 2 h (in vivo; male, NSG, iv, 1 nmol/mouse, total radioactivity, biodistribution, salivary glands) of 4.2 ± 0.5 %ID/g and a tissue uptake at 6 h (in vivo; Tumor uptake in mice) of 11.8 ± 1.5 %ID/g. For the same compound, the “PSMA-specificity of tumor uptake, coinjection of 2-PMPA” value [3] was “successfully blocked tumor accumulation”.
